Test [1] concerns the target atypical chemokine receptor 3 (human (endogenous in hPPAEC)) (UniProt P25106).
Test [2] deals with chemokine (C-X-C) motif receptor (CXCR) 4 (human (endogenous in hPPAEC)) (UniProt P61073).
Sequence of UniProt P61073 (P61073 whole entry): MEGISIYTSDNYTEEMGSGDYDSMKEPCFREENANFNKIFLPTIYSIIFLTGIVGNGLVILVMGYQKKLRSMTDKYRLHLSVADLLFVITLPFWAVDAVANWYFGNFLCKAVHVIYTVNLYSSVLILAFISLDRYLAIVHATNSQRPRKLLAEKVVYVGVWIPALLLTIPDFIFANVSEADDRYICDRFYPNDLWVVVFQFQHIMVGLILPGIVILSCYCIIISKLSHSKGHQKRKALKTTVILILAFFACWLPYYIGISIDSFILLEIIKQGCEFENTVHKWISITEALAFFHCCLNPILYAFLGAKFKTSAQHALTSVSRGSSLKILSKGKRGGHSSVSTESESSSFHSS

Sequence of UniProt P25106 (P25106 whole entry): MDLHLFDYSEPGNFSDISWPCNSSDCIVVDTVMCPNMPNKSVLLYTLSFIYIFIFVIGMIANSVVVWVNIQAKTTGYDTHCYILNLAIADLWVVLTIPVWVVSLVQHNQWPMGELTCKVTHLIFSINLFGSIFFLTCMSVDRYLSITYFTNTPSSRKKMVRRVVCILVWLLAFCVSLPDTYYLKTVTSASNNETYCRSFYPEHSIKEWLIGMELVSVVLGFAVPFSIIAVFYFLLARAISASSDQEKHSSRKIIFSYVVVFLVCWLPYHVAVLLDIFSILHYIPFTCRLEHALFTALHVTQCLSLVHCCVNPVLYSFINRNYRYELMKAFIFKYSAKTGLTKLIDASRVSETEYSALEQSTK

In test [1], “CXCL12_(2), disulfide-locked dimeric CXCL12 variant (from UniProt P48061-2 22-89) (ligand)” returned an EC50 of β-arrestin 2 recruitment to ACKR3, Presto-Tango (Tango plasmid in HTLA cells) of 8.8 nM and an efficacy (top plateau) of β-arrestin 2 recruitment to ACKR3, Presto-Tango, % of CXCL12α of 87%. Moreover, in test [2], the EC50 of β-arrestin 2 recruitment to CXCR4, Presto-Tango (Tango plasmid in HTLA cells) stood at 2.4 nM and the efficacy (top plateau) of β-arrestin 2 recruitment to CXCR4, Presto-Tango, % of CXCL12α worked out at 90%.

In test [1], “CXCL12 S-S4V, a protease resistant mutant (from UniProt P48061-2 22-89) (ligand)” gave an EC50 of β-arrestin 2 recruitment to ACKR3, Presto-Tango (Tango plasmid in HTLA cells) of 0.7 nM and an efficacy (top plateau) of β-arrestin 2 recruitment to ACKR3, Presto-Tango, % of CXCL12α of 88%. In test [2], this substance showed an EC50 of β-arrestin 2 recruitment to CXCR4, Presto-Tango (Tango plasmid in HTLA cells) of 75 nM and an efficacy (top plateau) of β-arrestin 2 recruitment to CXCR4, Presto-Tango, % of CXCL12α of 117%.

In test [1], “N-terminal truncated CXCL12 (3–68) (from UniProt P48061-2 24-89) (domain or fragment)” gave an EC50 of β-arrestin 2 recruitment to ACKR3, Presto-Tango (Tango plasmid in HTLA cells) of 13.3 nM and an efficacy (top plateau) of β-arrestin 2 recruitment to ACKR3, Presto-Tango, % of CXCL12α of 19%. Besides, the EC50 of β-arrestin 2 recruitment to CXCR4, Presto-Tango (Tango plasmid in HTLA cells) in test [2] is more than 1000 nM.

“CXCL12β (from UniProt P48061 22-93) (ligand)”: in test [1], the EC50 of β-arrestin 2 recruitment to ACKR3, Presto-Tango (Tango plasmid in HTLA cells) worked out at 1.5 nM and the efficacy (top plateau) of β-arrestin 2 recruitment to ACKR3, Presto-Tango, % of CXCL12α came out at 103%. In test [2], this substance yielded an EC50 of β-arrestin 2 recruitment to CXCR4, Presto-Tango (Tango plasmid in HTLA cells) of 1.4 nM and an efficacy (top plateau) of β-arrestin 2 recruitment to CXCR4, Presto-Tango, % of CXCL12α of 73%.

In test [1], “CXCL12 R47E (from UniProt P48061-2 22-89) (ligand)” had an EC50 of β-arrestin 2 recruitment to ACKR3, Presto-Tango (Tango plasmid in HTLA cells) of 0.4 nM and an efficacy (top plateau) of β-arrestin 2 recruitment to ACKR3, Presto-Tango, % of CXCL12α of 86%. In addition, in test [2], the EC50 of β-arrestin 2 recruitment to CXCR4, Presto-Tango (Tango plasmid in HTLA cells) came to 127 nM and the efficacy (top plateau) of β-arrestin 2 recruitment to CXCR4, Presto-Tango, % of CXCL12α was determined as 105%.

In test [1], “CXCL12 K27A/R41A/R47A (from UniProt P48061-2 22-89) (ligand)” had an EC50 of β-arrestin 2 recruitment to ACKR3, Presto-Tango (Tango plasmid in HTLA cells) of 1.2 nM and an efficacy (top plateau) of β-arrestin 2 recruitment to ACKR3, Presto-Tango, % of CXCL12α of 83%. In test [2], this substance gave an EC50 of β-arrestin 2 recruitment to CXCR4, Presto-Tango (Tango plasmid in HTLA cells) of 145 nM and an efficacy (top plateau) of β-arrestin 2 recruitment to CXCR4, Presto-Tango, % of CXCL12α of 111%.

In test [1], “CXCL12_(1), engineered constitutively monomeric CXCL12 variant (from UniProt P48061-2 22-89) (ligand)” had an EC50 of β-arrestin 2 recruitment to ACKR3, Presto-Tango (Tango plasmid in HTLA cells) of 5.6 nM and an efficacy (top plateau) of β-arrestin 2 recruitment to ACKR3, Presto-Tango, % of CXCL12α of 98%. Moreover, in test [2], the EC50 of β-arrestin 2 recruitment to CXCR4, Presto-Tango (Tango plasmid in HTLA cells) is 27 nM and the efficacy (top plateau) of β-arrestin 2 recruitment to CXCR4, Presto-Tango, % of CXCL12α amounted to 103%.

(Values after paper PMC5681266.)
